Test: soluble on expression in E. coli; label from the status in PepcDB or PDB records

Row | Sequence | soluble on expression in E. coli
1 | MTPGGQAQIGNVDLVKQLNSAAVYRLIDQYGPISRIQIAEQSQLAPASVTKITRQLIERGLIKEVDQQASTGGRRAISIVTETRNFHAIGVRLGRHDATITLFDLSSKVLAEEHYPLPERTQQTLEHALLNAIAQFIDSYQRKLRELIAISVILPGLVDPDSGKIHYMPHIQVENWGLVEALEERFKVTCFVGHDIRSLALAEHYFGASQDCEDSILVRVHRGTGAGIISNGRIFIGRNGNVGEIGHIQVEPLGERCHCGNFGCLETIAANAAIEQRVLNLLKQGYQSRVPLDDCTIKTICKAANKGDSLASEVIEYVGRHLGKTIAIAINLFNPQKIVIAGEITEADKVLLPAIESCINTQALKAFRTNLPVVRSELDHRSAIGAFALVKRAMLNGILLQHLLEN | soluble
2 | MGPVRFAPSILTADLARLGEAIREAEAAGVDWIHLDVMDGVFVPNLTFGPLLVEAVRRVTSLPLDVHLMIVKPERYLEDFAQAGADHITVHFEATYHPHRAVQKVKELGKKAGLAVNPGTPLEAFEPLLPDLDLALLMSVNPGFGGQRYLPTATERLRRLKAMRDRLNPACLIVVDGGINRDTVAEARRAGADVAVAGSALFNDKPVAENLKALRLALLG | soluble
3 | MGHHHHHHSHMKPLIWTWSDVEGQRPALLICTAAAGPTQGVKGYGKPFEPRSVKNIHSTPAYPDATMHRQLLAPVEGRMAETLNQKLHVANVLEDDPGYLPHVYSEEGECGGAPSLSSLASLEQELQPDLLDSLGSKATPFEEIYSESGVPS | not soluble
4 | MKKLSFFLIATLSLGACSTATSPTGRHQVFSGVSQQQLNQLGEQAFVEIKAKEKISGNVRQNAYVRCVVDALVTELPLQWRHVKWETVLFLNEEPNAFALPGGKVGVNTGIFRAAKNQEQLAAVLGHEIGHVVSRHHEERITWQLGTQAGLGLLGVLAGTAYGDSAATAVNQIGGLTAQAAFLLPGSRTQEREADIVGQRLMAQAGFDPIQAVYLWKNMLAIAGQRPPQWLSTHPDPTNRIRQLEQQSAVLASVYAQARDAGRVPHCSPAALEHHHHHH | not soluble
5 | MSLGQTTLACSFRSLTNPYYTAFNKGAQSFAKSVGLPYVPLTTEGSSEKGIADIRALLQKTGGNLVLNVDPNDSADARVIVEACSKAGAYVTTIWNKPKDLHPWDYNPNYVAHLSYDGVAYGEETATQLFKSMGGKGGVVALGGIFSNVPAIERKAGLDAALKKFPGIQLLDFQVADWNSQKAFPIMQAWMTRFNSKIKGVWAANDDMALGAIEALRAEGLAGQIPVTGMDGTQPGLVAIKSGELVASVDWDPFWLGGIGLSMGLQAKEKKIDLATLPKDRRESFCTATFVTKTNVQDVIARAASPKAEWNNLYARVAGPVVYREGHHHHHH | soluble
6 | SMSAGPWKMVVWDEDGFQGRRHEFTAECPSVLELGFETVRSLKVLSGAWVGFEHAGFQGQQYILERGEYPSWDAWGGNTAYPAERLTSFRPAACANHRDSRLTIFEQENFLGKKGELSDDYPSLQAMGWEGNEVGSFHVHSGAWVCSQFPGYRGFQYVLECDHHSGDYKHFREWGSHAPTFQVQSIRRIQQ | soluble
7 | PIFTLNTNIKATDVPSDFLSSTSALVGNILSKPGSYVAVHINTDQQLSFGGSTNPAAFGTLMSIGGIEPSRNRDHSAKLFDHLNTKLGIPKNRMYIHFVNLNGDDVGWNGTTF | soluble
8 | MSLTPIEAMKLAAGEIAGEKSLKTLAEVVDILSQEQDVTKRFGQKGLGQRNLGRAVQLLVESSETNEGRCMVAYDVFKSLERIVLDYVPDQNDRAKYLEDLKIAKGLYRERIMTEMFNAYMDEPYAVKKDVMNYVNMIIGIDAESLGPDRMWKYKDPQTGELKALKIDERYVKNVEDRLGLKTDEQRESFRTSIRKIYGQKISVDSTYDFMDNLELVKAVTDVRLKSDIAGAGSLIGALANRTNEENQKLYDRMVDTMLKKLGYCRTCAQKTIEYFCTQEDEGHHHHHH | soluble
9 | GSPGISGGGGGILVGSKMAASIRERQTVALKRMLNFNVPHVKNSPGEPVWKVLIYDRFGQDIISPLLSVKELRDMGITLHLLLHSDRDPIRDVPAVYFVMPTEENIDRLCQDLRNQLYESYYLNFISAISRSKLEDIANAALAANAVTQVAKVFDQYLN | soluble
10 | MLFSKETLKSFAQSKGISNIDDDALRVLSQDLEYRIKEVCQEGSKFMVGSKRTKLSIDDINYALTSRNVDPLFGYDPQESLVFRGLPSNVYYVPDEEIDLEEYLDRPLPKVPLRVSIQSHWLAIEGVQPQIPYNPILLEKPVAKKDTLGTYQEEAELKSQNKHMLTKELGMYFDKVIQAMESDEQTAMECLHNESGIQQLVPYFVHHFNEQIVKNIKNKEKLMTVVMVYSSLLKNKYIFVDPYLHQILPSLITCVIGKNVDDDVRKVAADVVKYVFSNFSSSYKTLAPRIINTLSKAWLDREKTESTQYGALFCLSILSKHVVETVIKPKADYYVREINNPRVVGLLKDILQSNGL | soluble
11 | MATVGGAFKDSLTQAQKDELHQIALKIVQDGKGILAADESTGTIGKRLDAINLENNETNRQKYRQLLFTTPNLNQHISGVILYEETFHQSTDKGEKFTDLLIKQGIVPGIKLDLGVVPLAGTIGEGTTQGLDKLAERAAAFKKGGCGFAKWRCVLNIGTHTPSHLGMLENANVLARYASICQANGLVPIVEPEVLCDGEHDLARAQKVTEQVLAFVYKALADHHVYLEGTLLKPNMVTPGQSSASKASHEAIGLATVTALRRGVPAAVPGITFLSGGQSELDATANLNAINSVQLGKPWKLTFSYGRALQASVLKAWGGKDENIAAAQKTLLHRSKANGDASLGKYAGEDAAGAAAESLFVAKHSY | not soluble
12 | MGSDKIHHHHHHMVVLHSKGGFFLEILKVVDLKKHYGDVKAVDGISFTVERGTVFSFLGPNGAGKTTTVEILEGLRKKDSGEIYYFGERKDVLDRETKRKIGVCLQKSAFFENLTVWETLKLFRGLYGTGLDLKEVMGLFSLENIEKKMVKTLSGGQLQRLAVAVAFINDPEIVFLDEPTTGLDPQARRQIWDTIEHFKNLGKTIFLTTHYMEEAERLSDHVCIIDHGKIIAEGTPSSLISSSGLKTVVEFDCDQDVNVRYLEKKENHYVVETDAPEELIKDLLKNWNVSNIVIRKPNLEDVFLKLTGRDLRE | not soluble
13 | MGSDKIHHHHHHMSKGTIRVLQLYPRDMNIYGDWGNALVLQQRLRWHGYTPELLEYNVGDEFPAGVDLIVGGGGQDSGQLVIQDDLLSRESTLKELAEAGTPMLLICGMYQLFGKFFKTRTGSVIPGIGVLDVETHGTDERLIGNVTVSSPEFGDVLGYENHSGQTTLGPGVRPLGSTPKGIGNNSKDGQEGARYRNIVASYLHGSLLPKNPAIADFLIRTAVERKYGSFTPGAPDDRYAVMAREHAARRPR | not soluble
14 | MSLTVVLIVDDHHLIRAGAKNLLEGAFSGMRVEGAETVSDALAFLEADNTVDLILLDVNLPDAEAIDGLVRLKRFDPSNAVALISGETDHELIRAALEAGADGFIPKSADPQVLIHAVSLILEGEIFLPRSYLQGGRMAEVATPLDSSERPEQNLTPRQRDVFELMCKGLANKEIARLLDLSESTVKSHVSAIFKQIGTTSRSKTIAIFRQEGVALPSASEDEGHHHHHH | soluble
15 | MGSDKIHHHHHHMGQTTFSRQKDGQPDTAYHDSETTYHYSETTYNYAYLDESTKGMIRRAILKAIAIPGHQVPFGSREMPMPYGWGTGGIQITASIIGPNDTLKVIDQGSDDTTNAVSIRAFFRKVTNVPTTEKTSEATLIQTRHRIPETPLKEDQILVFQVPIPEPLRFIEPRETETCKMHALEEYGVMQVKLYEDIARFGHIATTYAYPVKVNHRYVMDPSPIPKFDNPKMDMMPALQLFGAGREKRVYAVPPYTVVESLDFDDHPFTIQQWDKPCELCGARDSFLDEVVMDDDGTRMFVCSDTDYCQLRQSQGEKTS | not soluble
16 | MKVEEQYLQLFRENREAIDSHSPRVLNEQREKASMAFASKGLPRYGTENYQRTDLSELFGYDYGVNLNRVNFPIRQKEAFHCTLPDLDTDLCYIVNDAYDNEWSRVSELPEGAFVGSLSDFALSHPEIAARYYAQAAAPDHDGIIAFSTMFAQDGFIIYLPDGAVLKNPIQLVQLLRADMEIL | not soluble
17 | MTQPFNFEQALKDLQSGKSLTGKDSILGPLIKQLTEAALQAELEQHLAHDPQPNRKNGKTPKTIKHPSGNFELDAPRDRNGTFEPQLIKKNQTTLTDEIERKVLSMFSIGMSYRDINQHVEDMYGLNVSNATVSAITDKLIPELKAWQQRPLDSHYPIVWLDAIHYKVKEDGRYVSKAVYTLLALNMKGKKEILGLHLSENEGANYWLSVLADLNNRGVKDILIACVDGLTGFPEAIASIFPHTETQLCVIHQIRNSMKYVASKNQKAFMADLKPVYRAVSKEAAEMALDELEAKWGDAYPLVINSWRRKWHNLSHYFKYPEHIRKVIYTTNAVEAVHRQFRKLTKTKGAFPNENSLLKLLYAGILNASDKWTMPIHNWSLCLSQLAIYFEGRLDSVLEI | not soluble
18 | AIASAEAADREAVSGSRPCTPPQTSWFEFLLNPSLLEQHLHSPHPDPSPVQLIFQFLEQASKPSVNEQNQVQPPVDNRRNRTLKLMALKVAAHLRWDLNMLEKGLTIPVLNMLLNELLCVSHVPPGVKHVDLDLSSLPPTTAMAVVFYNRWAIRTIVLSSFPEKQTKPGPHQLNMMNMLQQEKEHTENILSVLREQATDSIMVLEGALSIKKDFYIHL | soluble
19 | MAFELPALPYAKDALEPHISAETLDFHHGKHHNTYVVKLNGLIPGTEFENKSLEEIIKTSTGGIFNNAAQVWNHTFYWHCLSPNGGGEPTGAVAEAINAAFGSFADFKAKFTDSAINNFGSSWTWLVKKADGTLAITNTSNAATPLTEEGVTPLLTVDLWEHAYYIDYRNVRPDYMNGFWALVNWDFVAQNLAK | not soluble
20 | MGSDKIHHHHHHMFNNHEIDTILSTLRMEADPSLHPLFEQFEKFYEEKLWFQLSESLTKFFDDAKSTPLRLRLYDNFVSKFYDKINQLSVVKYLLASLKDSKDFDESLKYLDDLKAQFQELDSKKQRNNGSKDHGDGILLIDSEIARTYLLKNDLVKARDLLDDLEKTLDKKDSIPLRITNSFYSTNSQYFKFKNDFNSFYYTSLLYLSTLEPSTSITLAERQQLAYDLSISALLGDKIYNFGELLHHPIMETIVNDSNYDWLFQLLNALTVGDFDKFDSLIKVQISKIPILAQHESFLRQKICLMTLIETVFVKNIRMLSFEDISKATHLPKDNVEHLVMRAISLGLLKGSIDQVNELVTISWVQPRIISGDQITKMKDRLVEWNDQVEKLGKKMEARGQSIWV | not soluble
21 | MLKLGVIGTGAISHHFIEAAHTSGEYQLVAIYSRKLETAATFASRYQNIQLFDQLEVFFKSSFDLVYIASPNSLHFAQAKAALSAGKHVILEKPAVSQPQEWFDLIQTAEKNNCFIFEAARNYHEKAFTTIKNFLADKQVLGADFNYAKYSSKMPDLLAGQTPNVFSDRFAGGALMDLGIYPLYAAVRLFGKANDATYHAQQLDNSIDLNGDGILFYPDYQVHIKAGKNITSNLPCEIYTTDGTLTLNTIEHIRSAIFTDHQGNQVQLPIQQAPHTMTEEVAAFAHMIQQPDLNLYQTWLYDAGSVHELLYTMRQTAGIRFEAEK | soluble
22 | MGSDKIHHHHHHMKLPANQEKNQPVPVVKPSSTLEEINQNAAGIDLGSGEHWVCVPPDRADKNVRRFGCFTPDLIAMADWLKECRINTVAMEATGVYWIPVFQVLEAKGFEVKLVNAHHVKTVPGRKTDVLDCQWLQKLHTYGLLSGSFRPEDQVCVLRSYIRQRDTLIKSASAHIQRMQKALIQMNLHLHKVISDVTGLTGMKIIKAIVAGEQDPQVLASLKDPHIKSSTADIAASLTGDYRREHLFVLQQELTLYEIYQQQIIAVDAEIEKCLAYA | not soluble
23 | MIIERLVGNLRDLNPLDFSVDHVDLEWFETRKKIARFKTRQGKDIAIRLKDAPKLGLSQGDILFKEEKEIIAVNILDSEVIHIQAKSVAEVAKICYEIGNRHAALYYGESQFEFKTPFEKPTLALLEKLGVQNRVLSSKLDSKERLTVSMPHSEPNFKVSLASDFKVVVK | not soluble

Reference: the DeepSol protein solubility set
